Experimental data from patent publication US20220089725A1.

Legend:
[1] = biological target: human FCMR on blood cells (human) (UniProt O60667); assay: flow cytometry of fresh human whole blood, isotype control row of the left (2A5) panel; gated subset not stated; FMO row reads 24.7
[2] = biological target: human FCMR on blood cells (human) (UniProt O60667); assay: flow cytometry of fresh human whole blood, isotype control row of the right (3F9) panel; gated subset not stated; FMO row reads 24.7
[3] = biological target: recombinant human FCMR-Fc (human) (UniProt O60667); assay: SPR (Biacore), 25 C, antibody immobilised, FCMR-Fc titrated at 500 to 0 nM
[4] = biological target: human FCMR on blood cells (human) (UniProt O60667); assay: flow cytometry of fresh human whole blood, gated CD19+ B cells, aToso 2A5 : AF647, left panel
[5] = biological target: human FCMR on blood cells (human) (UniProt O60667); assay: flow cytometry of fresh human whole blood, gated CD3+CD4+ T cells, aToso 2A5 : AF647, left panel
[6] = biological target: human FCMR on blood cells (human) (UniProt O60667); assay: flow cytometry of fresh human whole blood, gated CD3+CD8+ T cells, aToso 2A5 : AF647, left panel

UniProt O60667, sequence (O60667 17-390): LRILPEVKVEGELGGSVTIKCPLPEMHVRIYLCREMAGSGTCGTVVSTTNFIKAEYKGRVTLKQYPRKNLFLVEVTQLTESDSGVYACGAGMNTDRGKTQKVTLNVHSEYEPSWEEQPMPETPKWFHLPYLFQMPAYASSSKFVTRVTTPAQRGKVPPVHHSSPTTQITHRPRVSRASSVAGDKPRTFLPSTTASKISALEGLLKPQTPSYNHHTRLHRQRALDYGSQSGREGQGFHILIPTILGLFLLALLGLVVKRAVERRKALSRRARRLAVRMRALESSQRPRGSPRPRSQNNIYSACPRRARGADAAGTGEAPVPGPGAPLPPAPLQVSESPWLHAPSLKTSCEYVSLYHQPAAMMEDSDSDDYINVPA

Row | mean fluorescence intensity [1] | mean fluorescence intensity [2] | Kd [3] [nM] | koff [3] [s⁻¹] | kon [3] [M⁻¹ s⁻¹] | mean fluorescence intensity [4] | mean fluorescence intensity [5] | mean fluorescence intensity [6] | Molecule
1 | 25.6 | 25.6 |  |  |  |  |  |  | Isotype Control (antibody)
2 |  |  | 7.21 | 0.000247 | 34700 | 960 | 247 | 414 | FCMR 2A5 antibody (antibody, V domains shown) VH: EVQLVESGGDLVKPGGSLKLSCAASGFTFSSYGMSWVRQTPDKRLEWVATINSGGSSIYYPDSVKGRFTISRDNAKNTLYLQMSSLKSEDTAMYYCARHNYDSSYRYAMDYWGQGTSVTVSS VL: DIKMTQSPSSMYASLGERVTITCKASQDINNFLSWFQQKPGKSPKTLIYRANGLVDGVPSRFSGSGSGQDYSLTISSLEYEDMGIYYCLQYDEFPPTFGGGTKLEFKR
